Laboratory results from paper PMC6659731.

Target: T1, BUD13-2xFLAG (UniProt Q9BRD0 1-619)
T1 sequence: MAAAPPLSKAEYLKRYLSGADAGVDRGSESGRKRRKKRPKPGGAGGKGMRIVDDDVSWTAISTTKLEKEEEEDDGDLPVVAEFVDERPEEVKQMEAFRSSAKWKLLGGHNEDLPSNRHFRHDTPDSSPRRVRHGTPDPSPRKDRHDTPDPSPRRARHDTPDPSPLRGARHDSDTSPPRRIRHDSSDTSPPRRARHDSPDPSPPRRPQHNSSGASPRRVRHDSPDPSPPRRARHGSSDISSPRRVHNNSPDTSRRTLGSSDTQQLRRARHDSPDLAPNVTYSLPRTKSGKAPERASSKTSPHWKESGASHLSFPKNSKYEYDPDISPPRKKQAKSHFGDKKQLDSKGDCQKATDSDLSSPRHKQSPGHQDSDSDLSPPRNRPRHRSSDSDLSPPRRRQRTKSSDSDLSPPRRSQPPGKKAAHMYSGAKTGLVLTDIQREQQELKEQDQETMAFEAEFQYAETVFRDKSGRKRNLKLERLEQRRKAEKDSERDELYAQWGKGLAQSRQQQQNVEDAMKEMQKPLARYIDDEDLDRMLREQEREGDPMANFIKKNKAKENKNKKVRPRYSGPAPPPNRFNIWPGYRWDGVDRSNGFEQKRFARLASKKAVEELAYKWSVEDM
Assay: EMSA

UAAAGUGCUUAUAGUGCAGGUAGUGU (ssRNA) [EMSA miR-20a locus RNA oligo]: no binding.
